Results as given in patent US6589750B2, “Therapeutic use of the SMR1 protein, the SMR1 maturation products, specifically the QHNPR pentapeptide as well as its biologically active derivatives” (Institut Pasteur, priority 1997, dated 2003).
Square brackets hold non-standard residues; d marks the D form. Ends that are not written are not given here. pGlu = O=C1CC[C@@H](C(=O)O)N1

Columns and labels:
[1] = tested on: peptide binding sites; assay: In vivo displacement experiments with coinjection of 100-fold excess of unlabeled peptide; parameters: species or system rat
From the text: Biological receptor sites have two essential characteristics that allow specific binding to be identified, in vivo; they have a high affinity for the ligand and the binding is saturable (Whitcomb et al., 1993). Therefore, displacement experiments, using parallel systemic administration of an excess of the corresponding unlabeled peptide has been performed. Furthermore, the specific cellular localization of labeled pentapeptide to target tissues has been identified by section microscopic autoradiography.
The tritium activity was determined as counts/mm^2.
In the case of radioactive quantification of organ sections or acid extracts, using a liquid scintillation counter (MR300 Kontron), the tritium activity was determined as cpm/mg protein. Protein concentration was determined by the Bradford method (Bradford et al., 1976).

[2] = Pentapeptide metabolic and pharmacokinetic study after i.v. bolus of tritiated pentapeptide; format: in vivo, rat
Description: The in vivo time course of distribution, metabolism and elimination of the pentapeptide was investigated in anesthetized adult male rats using physiological concentrations of circulating tritiated pentapeptide.
Anesthetized male rats were given a bolus intravenous injection of 170 pmoles or 110 ng tritiated pentapeptide diluted in 100 μl PBS Dulbecco's. Blood was collected in tubes containing a mixture of peptidase inhibitors described above, via a silastic catheter implanted into the external jugular vein. Blood was withdrawn just before and 2, 4, 6, 8, 10, 20, 30, 45, 60, 90 and 120 min. after peptide administration. Two milliliters of blood per rat were taken in all and the entire urinary bladder content was collected at a last selected point.
The biological samples were submitted to centrifugation and Parapak Q extraction conditions, as described above. Chromatrography using HPLC procedure described above and in the reference (Rougeot et al., 1994) was then applied to each extracted sample. The ODS AQ RP-C18 was used for identification of amino-terminal metabolites and Pep RPC HR C18 (Pharmacia, France) for identification of carboxyl-terminal metabolites. The radioactivity content of samples before and after chromatographic separations was determined using a beta counter (Kontron, MR300).

[3] = Chromatographic characterization of radioactive peptide uptake by tissues (methanol extraction, RP-HPLC); format: in vivo, rat
Description: The chromatographic characteristics of the labeled compound associated, in vivo, to target organs were assessed by HPLC.
At selected time points (2 and 180 min.) after administration of tritiated pentapeptide, the anesthetized rats were sacrificed (cardiac blood puncture) and tissues quickly removed on ice. The tissues were immediately homogenized at 4° C. in 5-10 volumes of 0.1 M chlorhydric acid using a potter homogenizer (demineralization of bone tissue was realized after 24-48 h at 4° C. in guanidium hydrochloride and EDTA pretreatment, 4 M and 0.25 M final concentration, respectively). Homogenates were centrifuged for 30 min. at 4° C. and 15,000 g. To determine total radioactivity, aliquots of the supernatant solution were added to 50 volumes of Biofluor (NEN, Dupont de Nemours, France) and counted in a liquid scintillation counter.
To determine the radioactivity in the pentapeptide fraction, aliquots of the tissue extracts were submitted to a methanol-extraction procedure (Rougeot et al., 1994) after neutralization with Tris/HCl pH 8.5 containing 16 mM DTPA (DiethyleneTriaminePenta-Acetic acid, Sigma, France). The methanol phase was removed from the supernatant by partial evaporation, then lyophilization and the reconstituted aqueous phase containing 16 mM DTPA was applied to ODS AQ column (HPLC RP C18 chromatography) (AIT, France). Elution with a linear gradient of 0.1% trifluoro acetic (TFA) in water/0.1% TFA in acetonitrile (Merck, France) from 100/0 (vol/vol) to 50/50 (vol/vol) was performed for 30 min. at a flow rate of 1 ml/min. Fractions were collected every 60 sec. and analyzed for radioactivity using a liquid scintillation counter.

[4] = tested on: pentapeptide binding sites; assay: Cellular localization of 3H-pentapeptide binding sites by light microscopic autoradiography, in vivo radiolabeling; parameters: species or system rat
Description: The cellular-site localization for physiological concentrations of labeled pentapeptide was investigated by paraffin- or resin-section microscopic autoradiography procedure.
Sixty minutes after ^3H-pentapeptide (555 KBq, 160 ng or 250 pmoles) i.v. administration, the anesthetized male rats were perfused via the jugular veins with ice-cold Krebs Ringer Bicarbonate Glucosed buffer and then 0.5% paraformaldehyde/0.5% glutaraldehyde fixative PBS buffer (plus glucose 1.6%, CaCl2 0.002% and DMSO 1%) (50 ml/5 min. for each). Tissues were rapidly removed and harvested for paraffin sectioning (Paraplast plus-Sherwood medical, OSI, France) or for resin sectioning (histo-resin Leica, France). All sections were cut at 5 microns (Reichert Jung for paraffin and RM2155 Leica for resin sections) and mounted on Superfrost/Plus glass slides (non gelatin-coated). Paraffin was removed with xylene, and sections were carried through a descending, then an ascending ethanol series (from 100 to 50%, VN and reverse). Dried sections were then processed for light microscope autoradiography by attaching nuclear emulsion-coated (Kodak, NTB2, diluted 1:1 with distilled water) coverslips to them. After air drying for 2 hrs at room temperature the autoradiographs were exposed for 6 to 10 weeks in light-tight boxes at 4° C. Radiosensitive coverslips were developed in Kodak D19 (3 min.) developer and fixed in Kodak fixer (3 min.) Sections were counterstained with Harris' hematoxylin (Prolabo, France) and Toluidine blue (Sigma, France), dehydrated and mounted in Eukitt medium. The tissue and overlying silver grains were viewed and photographed with a Leica photomicroscope equipped with bright-field optics (DMRD Leitz, Leica).

[5] = rat, in vivo
Description: Labeled compound i.e. 6.66 MBq, 3 nmoles or 2 mg for whole body autoradiography (WBA) and 370-555 KBq, 170-250 pmoles or 110-160 ng for the pharmacokinetic and cellular-site distribution studies was diluted in 100-200 ml of phosphate-buffered saline (PBS Dulbecco's, Bio Media, France) and administered intravenously into the jugular vein of anesthetized rats (halothan for WBA or pentobarbital for all the other experiments).
The five week-old rats were sacrificed under halothane, at 90 sec., 3, 60 and 240 min. after i.v. injection of 3 nmoles (6.66 MBq or 2 μg) of tritiated pentapeptide. At the selected time, the restrained animal was immediately immersed in a −80° C. mixture of dry ice and isopentane, to prevent artefactual tracer redistribution. After 48 hours in self-sealing plastic stored at −30° C., the animal was then blocked in mounting medium. Whole body sagittal sections (20 mm) of the frozen rat were made at −30° C. with a cryostat (whole body slicing microtome Leitz 400 with a chest mobil freezer Leitz O M, Leica, France). […]
The quantitative determination of the radioactivity in various organ sections was carried out by using a gaseous detector of β-particles, which has recently been developed (Charpak et al., 1989; Tribollet et al., 1991). […] The number of counts per pixel was recorded in the β imager 2200 (Biospace, France) with a surface detector of 20×20 cm^2, followed by computer-assisted image analysis with the β Vision program using a HP Vectra computer. The tritium activity was determined as counts/mm^2. The linearity of this method of detection allowed measurement of the non specific binding of ^3H-pentapeptide, measured in various structures or compartments within the section with apparent non binding sites for the peptide (background tissues, e.g. muscle and cardiac blood except brain and spinal cord) or in the same labeled structure, in displacement experiments. […]
Assessment of tissue peptide targeting was accomplished by a β-radio imager quantification (FIG. 2). […]

[6] = target: anti-pentapeptide serum; assay: competitive liquid phase RIA, unlabelled standard displaces 125I-labelled pentapeptide from the antiserum
[7] = 60 min, 100-fold excess unlabeled peptide
[8] = 180 min after injection, DTPA extraction

For “QHNPR (not fully specified (residue 4)) [pentapeptide]”, the “specific labeling percentage, glandular mucosa of the stomach” value [1, 7] was 38-61%, the “specific labeling percentage, long bone” value [1, 7] was 29-38% and the “specific labeling percentage, pancreatic lobules” value [1, 7] was 37-55%. The “specific labeling percentage, submandibular lobules” value [1, 7] was 51-91%, the “displacement of 3H-pentapeptide uptake within the renal outer medullary” value ([1]; 60 min post-coinjection of 100-fold excess of unlabeled peptide) was “almost complete displacement” and the “specific labeling percentage, kidney” value ([1]; FIG. 8-B, depends on analysis method (total tissue count or regional analysis)) was 12 to 92%. For the same molecule, the “radioactivity eliminated through glomerular filtration” value ([2]; anesthetized rats, over a 60 min period, 170 pmoles injected) was 6 pmol, the distribution volume ([2]; male rat) was 35-40 ml/100 g. body weight and the “pentapeptide-binding substance complex as share of circulating peptide fraction” value ([2]; plasma, dissociated by acidic pH treatment) was “approximately 45%”. The “time from which plasma concentration is close to basal level” value ([2]; single i.v. injection of 110 ng tritiated pentapeptide) was 30 min, the “time to maximal plasma level” value ([2]; single i.v. injection of 110 ng tritiated pentapeptide, two male rats) was no more than 2 min and the “urine radioactivity that is pentapeptide metabolites” value ([2]; urinary bladder content) was “Approximately 80%”. The “infused pentapeptide metabolized in the bloodstream” value ([2]; within 4 min, proteolysis from the amino-terminal part) was 35%, the “tissue radioactivity extracted from acid homogenates by methanol” value ([3]; 5-20 min survival time after 3 nmoles 3H-pentapeptide) was 72±4% and the “radioactive peptide fraction extracted by methanol with DTPA (16 mM)” value ([3]; 180 min after injection) was 53±9%. For the same molecule, the “radioactive extract representing metabolites” value [3, 8] was 8±6%, the “radioactive extract representing undissociated peptide complex” value [3, 8] was 29±14% and the “radioactivity recovered in RP-HPLC peak of free pentapeptide” value ([3]; 180 min after injection, DTPA extraction, target organs) was 52±8%. For the same molecule, the “cellular localization of label in submandibular tissue” value ([4]; 60 min post-injection) was “no selective cell association of label was identifiable”, the “cellular localization of silver grains in glandular gastric mucosa” value ([4]; 60 min post-injection) was “over the chief or peptic cells” and the “cellular localization of silver grains in pancreatic tissue” value ([4]; 60 min post-injection) was “over the cells of acini”. For the same molecule, the “localization of silver grains in upper incisor root” value ([4]; 60 min post-injection) was “over the entire dentin layer”, the “cellular localization of silver grains in kidney” value ([4]; 60 min post-injection of physiological concentration (160 ng)) was “over the epithelial cells of the S3 segment of the straight portion of the proximal tubules” and the “persistence of label within target tissues” value [5] was greater than 240 min. For the same molecule, the “radioactivity in intestinal content” value [5] was “No radioactivity was found in the intestinal content” and the “tissue to blood ratio” value [5] was roughly 2.

B1: [Gln^1] pentapeptide (peptide)
peptide: QHNPR
B1 showed a 50% displacement of the 125I-labelled pentapeptide [6] of less than 570 fmol and a detection limit (80% binding) [6] of 106 fmol.

B2: [Glp^1] pentapeptide (peptide)
peptide: [pGlu]HNPR
B2 gave a 50% displacement of the 125I-labelled pentapeptide [6] of less than 570 fmol and a detection limit (80% binding) [6] of 106 fmol.
